Experimental data from paper PMC3229523, “Identification of Lactoferricin B Intracellular Targets Using an Escherichia coli Proteome Chip” (PLoS ONE, 2011).
Ends that are not written are not given here. * marks the point of attachment. Biotin = O=C1N[C@H]2[C@H](CS[C@H]2CCCCC(=O)*)N1

Tests used:
Experiment in all cases: peptide or protein array; E. coli proteome chip: purified His-tagged proteins printed in duplicate on Fullmoon slides, blocked with 1% BSA; 10 nM N-terminal biotinylated LfcinB with 1% BSA, room temperature, 1 h; detected with DyLight 649-labeled streptavidin, ratio to DyLight 549-labeled anti-His antibody; ProCAT normalisation, local cut-off; triplicate chips
Conditions in all cases: both partners purified
[1] = target: T1, YdaW (E. coli K-12, UniProt P76066 1-186)
T1 construct: YdaW, E. coli K-12
T1 sequence (looked up): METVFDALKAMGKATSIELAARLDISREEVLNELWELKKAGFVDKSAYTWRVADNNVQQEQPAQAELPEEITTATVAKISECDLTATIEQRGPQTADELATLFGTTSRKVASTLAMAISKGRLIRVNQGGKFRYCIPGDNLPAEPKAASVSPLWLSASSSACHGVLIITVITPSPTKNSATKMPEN

[2] = target: T2, YhiW (E. coli K-12, UniProt P63201 1-242)
T2 construct: YhiW, E. coli K-12
T2 sequence (looked up): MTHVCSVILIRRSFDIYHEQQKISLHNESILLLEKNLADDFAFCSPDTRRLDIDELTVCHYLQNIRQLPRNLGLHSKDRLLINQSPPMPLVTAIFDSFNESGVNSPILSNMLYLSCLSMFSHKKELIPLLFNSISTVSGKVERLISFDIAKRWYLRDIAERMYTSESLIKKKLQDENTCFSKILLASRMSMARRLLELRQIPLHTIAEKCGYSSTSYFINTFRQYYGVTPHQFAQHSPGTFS

[3] = target: T3, ThiF (E. coli K-12, UniProt P30138 1-251)
T3 construct: ThiF, E. coli K-12
T3 sequence (looked up): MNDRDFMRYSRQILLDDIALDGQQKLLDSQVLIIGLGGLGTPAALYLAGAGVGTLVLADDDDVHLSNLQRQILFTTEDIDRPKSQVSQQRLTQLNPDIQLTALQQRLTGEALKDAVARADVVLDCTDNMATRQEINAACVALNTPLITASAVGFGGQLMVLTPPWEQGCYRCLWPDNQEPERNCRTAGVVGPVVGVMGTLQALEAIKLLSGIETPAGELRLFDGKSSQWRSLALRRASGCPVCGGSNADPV

[4] = target: T4, YjeJ (E. coli K-12, UniProt P39279 1-289)
T4 construct: YjeJ, E. coli K-12
T4 sequence (looked up): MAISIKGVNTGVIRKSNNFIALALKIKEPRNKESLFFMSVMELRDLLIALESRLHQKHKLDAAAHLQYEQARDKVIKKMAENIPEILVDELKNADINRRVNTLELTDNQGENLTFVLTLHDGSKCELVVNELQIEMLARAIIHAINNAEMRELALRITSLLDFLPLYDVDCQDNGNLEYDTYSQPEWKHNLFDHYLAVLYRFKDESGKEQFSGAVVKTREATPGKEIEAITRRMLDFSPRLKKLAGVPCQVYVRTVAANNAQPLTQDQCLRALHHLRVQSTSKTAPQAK

[5] = target: T5, YibB (E. coli K-12, UniProt P25666 1-285)
T5 construct: YibB, E. coli K-12
T5 sequence (looked up): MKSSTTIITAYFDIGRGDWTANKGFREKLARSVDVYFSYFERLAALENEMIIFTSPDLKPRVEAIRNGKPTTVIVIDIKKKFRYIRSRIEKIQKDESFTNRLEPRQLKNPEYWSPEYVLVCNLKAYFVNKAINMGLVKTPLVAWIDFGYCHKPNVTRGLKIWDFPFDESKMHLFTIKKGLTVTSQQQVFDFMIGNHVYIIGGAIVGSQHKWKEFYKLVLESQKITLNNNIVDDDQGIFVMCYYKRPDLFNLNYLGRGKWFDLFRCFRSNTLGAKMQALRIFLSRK

[6] = target: T6, CbpA (E. coli K-12, UniProt P36659 1-306)
T6 construct: CbpA, E. coli K-12
T6 sequence (looked up): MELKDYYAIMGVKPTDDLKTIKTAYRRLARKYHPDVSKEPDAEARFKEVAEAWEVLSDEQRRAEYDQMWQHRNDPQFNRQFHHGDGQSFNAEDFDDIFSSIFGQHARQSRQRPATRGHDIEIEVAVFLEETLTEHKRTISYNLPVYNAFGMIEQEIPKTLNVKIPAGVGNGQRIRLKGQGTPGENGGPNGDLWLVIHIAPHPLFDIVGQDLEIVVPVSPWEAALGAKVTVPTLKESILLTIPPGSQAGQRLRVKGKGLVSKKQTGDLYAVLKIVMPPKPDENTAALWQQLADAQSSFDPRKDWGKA

Measured: binding result

B1: N-terminal biotinylated Lactoferricin B (peptide, UniProt P24627 36-60, looked up)
peptide: Biotin-FKCRRWQWRMKKLGAPSITCVRRAF
modifications: ends and bridges not checked
notes: lactoferricin B (LfcinB), cationic antimicrobial peptide of 25 amino acids; also called biotinylated LfcinB; biotin-labeled LfcinB; source: bought: Kelowna Inc
binds: all assays above
